Entries after “also recorded” stand apart in the source; their conditions may differ. Blank lines part the entries; values can stand above or below the substance they belong to. No end group written: not given here.
Key:
T47D = settings: cancer cell lines such as T47D; cited from earlier work
breast cancer xenograft = settings: mouse xenograft models of breast cancer; administration of calcitonin; cited from earlier work
[1] = biological target: human calcitonin receptor, endogenous (GBM tissue, A172 glioblastoma cell line) (human) (UniProt P30988); experiment: cell-based or functional assay; settings: scale: log EC50
CTR [2] = biological target: T1, CTR (Homo sapiens, UniProt P30988); experiment: Inhibition of phosphorylation of ERK1/2 in GBM cell line A172; assay type: cell-based; settings: 10^−6M sCT (8-32)
T1 construct: cMyc; expressed in transfected cells
T1 sequence (P30988 25-474): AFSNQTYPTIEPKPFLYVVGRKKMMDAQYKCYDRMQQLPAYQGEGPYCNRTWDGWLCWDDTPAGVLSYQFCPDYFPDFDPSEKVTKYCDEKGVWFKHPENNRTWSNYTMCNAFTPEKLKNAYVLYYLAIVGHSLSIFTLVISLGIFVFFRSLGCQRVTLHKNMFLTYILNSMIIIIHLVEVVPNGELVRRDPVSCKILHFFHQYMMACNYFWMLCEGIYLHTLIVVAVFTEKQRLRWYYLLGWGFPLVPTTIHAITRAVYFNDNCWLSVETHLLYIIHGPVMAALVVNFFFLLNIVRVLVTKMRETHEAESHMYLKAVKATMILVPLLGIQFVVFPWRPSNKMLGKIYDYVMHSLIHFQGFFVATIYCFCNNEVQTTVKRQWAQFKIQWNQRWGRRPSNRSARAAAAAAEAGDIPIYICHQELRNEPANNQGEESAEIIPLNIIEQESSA
Description: FIG. 6. […] (C) is an immunoblot of a crude membrane preparation from the cell line A172 and probed with the anti-CTR antibody MCA2191.
(§1) The glioblastoma cell line A172 was maintained in DMEM/10% FBS.
FIG. 6 illustrates the concentration response curves and immunoblot for the GBM cell line A172.

CTR [3] = biological target: T1, CTR; experiment: Stimulation of cAMP production (adenylyl cyclase activity) in GBM cell line A172; assay type: cell-based; settings: 10^−6M sCT (8-32)
Description: FIG. 6. […]. (C) is an immunoblot of a crude membrane preparation from the cell line A172 and probed with the anti-CTR antibody MCA2191.
as §1
FIG. 6 illustrates the concentration response curves and immunoblot for the GBM cell line A172. […]. The stimulation was inhibited by the antagonist 10^−6M sCT (8-32). In immunoblots (C) of whole cell lysates of A172 probed with the anti-CTR antibody MCA2191, there is a minor band that runs with a mobility of ˜70 kD and a major band at 52 kD.

Substance: calcitonin (CGNLSTCMLGTYTQDFNKFHTFPQTAIGVGAP; ends and bridges not checked; cysteine pairing not given here; UniProt P01258 85-116, looked up) [calcitonin (CT), calcitonin receptor agonist]
cell proliferation (T47D): inhibits cell proliferation | tumor volume (breast cancer xenograft): significantly reduced

log EC50, inhibition of phosphorylation of ERK1/2 in the GBM cell line A172 [1]: -10.5 | log EC50, stimulation of adenylyl cyclase activity (cAMP production) in the GBM cell line A172 [1]: -9.9
Substance: human CT (from UniProt P01258 85-116) (ligand)

effect on the hCT inhibition of ERK1/2 phosphorylation (CTR [2]): inhibited; also recorded: antagonised | effect on the hCT stimulation of adenylyl cyclase activity (CTR [3]): inhibited
Substance: sCT (8-32): antagonist (also called inverse agonist) of CTR (VLGKLSQELHKLQTYPRTNTGSGTP)

From patent US20130230453A1, “DIAGNOSIS AND TREATMENT OF BRAIN TUMORS” (Welcome Receptor Antibodies Pty Ltd, priority 2010, published 2013)
